We go through six molecules from patent publication US20230035798A1 (CAPELLA BIOSCIENCE, published 2023).

Experiment [1] has as its target T1, human LIGHT (TNFSF14), full length, membrane-bound (214E allele) (human, UniProt O43557 1-240).
T1 construct: also called membrane LIGHT; human membrane LIGHT
Put plainly: flow cytometry, maximum signal compared with F19 and F23. (Flow cytometry measures light scatter and fluorescence of single cells or particles in a stream.)
Target sequence in this assay (O43557 whole entry K214E): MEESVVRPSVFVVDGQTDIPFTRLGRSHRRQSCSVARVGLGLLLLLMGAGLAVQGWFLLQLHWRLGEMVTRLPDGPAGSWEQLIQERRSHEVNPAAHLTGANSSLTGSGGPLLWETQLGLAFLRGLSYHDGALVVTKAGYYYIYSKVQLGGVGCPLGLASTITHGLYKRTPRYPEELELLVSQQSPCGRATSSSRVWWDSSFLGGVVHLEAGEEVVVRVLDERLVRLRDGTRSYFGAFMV

Experiment [2] deals with T1, human LIGHT (TNFSF14), full length, …. Put plainly: competition with biotin-HVEM:Fc, HEK293FF LIGHT cells, flow cytometry. The protocol: The ability of the 7 chimeric mAbs to block biotin-HVEM:Fc and biotin-LTβR:Fc fusion proteins to cell surface expressed LIGHT using a flow cytometric based assay is shown in FIGS. 1A and 1B respectively. In these experiments, graded amounts of each antibody were added to the HEK293FF cells transiently transfected with LIGHT with a 50% saturating amount of the receptor fusion protein. As shown, each of the antibodies blocked either receptor fusion protein from binding LIGHT, in contrast to the irrelevant antibody control which had no effect on either Fc-receptor fusion protein binding. In each experiment, all antibodies blocked receptor binding in a dose dependent manner enabling analysis by non-linear regression to determine the IC50 dose as shown in Table 11A.
Target sequence in this assay (O43557 whole entry K214E): as above

Experiment [3] shares this target. Kind of experiment: DcR3-His (1 nM) competition, EL4-LIGHT, flow cytometry; 3.7 nM. The protocol: (§1) EL4-LIGHT cells (0.25×10⁶) were preincubated with anti-membrane LIGHT mAbs (0-300 nM) for 15 min at 4° C. followed by incubation with DcR3-His tagged (1 nM, Creative BioMart; ref: TNFRSF6B-552H, lot: 962512) for 30 min at 4° C. The samples were then incubated with mouse anti-histag antibody (diluted 1:500, Biolegend, cat. no. 652502) for 30 minutes at 4° C., followed by incubation with anti-mouse APC (dil 1:500, BDBiosciences, cat. no. 550826) for 30 minutes at 4° C. The tubes were washed three times after each of the detection antibody stages and flow cytometry analysis was performed. Specific mean fluorescence intensity (MFI) obtained from the binding of DcR3-His to LIGHT on EL4 cells were used to determine the levels of competition binding.
(§2) In humans, LIGHT is neutralized by DcR3, a unique soluble member of the TNFR superfamily, which tightly binds LIGHT (both soluble and membrane forms) and inhibits its interactions with HVEM and LTβR. A major binding determinant for DcR3 neutralization is the region T170-E178 on LIGHT (Liu et al. Structure 2014: 9; 1252-1262). […] In contrast the anti-LIGHT mAb F19, (from EP2292663) which binds both soluble LIGHT and membrane LIGHT equally well completely displaces DcR3 from binding to membrane LIGHT highlighting a surprising an important functional difference between the anti-membrane LIGHT mAbs of this invention and other neutralizing anti-LIGHT mAbs that have been raised against or screened against soluble LIGHT.
Target sequence in this assay (O43557 whole entry K214E): as above

Experiment [4] has the same target. Kind of experiment: DcR3-His (1 nM) competition, EL4-LIGHT, flow cytometry; 1.23 nM. The protocol: as §1, §2
Target sequence in this assay (O43557 whole entry K214E): as above
The target is the same in experiment [5]. Kind of experiment: DcR3-His (1 nM) competition, EL4-LIGHT, flow cytometry; 33.3 nM. Here is the method: as §1, §2
Target sequence in this assay (O43557 whole entry K214E): as above
The target is the same in experiment [6]. Put plainly: flow cytometry, EL4-LIGHT cells. The protocol: The EC50 of the 7 mAbs were calculated from binding to EL4-LIGHT cells (Table 7) which represents a more accurate comparison of the EC50's than utilising transiently transfected LIGHT cells. […] Non-linear regression analysis was performed to determine the functional binding affinity measurement or EC50 for each mAb. A range of functional affinities was observed.
Target sequence in this assay (O43557 whole entry K214E): as above

Experiment [7] deals with membrane LIGHT without residues 81-84 (EL4-NC-LIGHT cells) (human, UniProt O43557 1-240). Kind of experiment: cell-based or functional assay.
For experiment [8], the target named is T2, recombinant human soluble LIGHT, amino acids 74-240 (R&D Systems 664-LI-025) (human, UniProt O43557 74-240).
T2 chain: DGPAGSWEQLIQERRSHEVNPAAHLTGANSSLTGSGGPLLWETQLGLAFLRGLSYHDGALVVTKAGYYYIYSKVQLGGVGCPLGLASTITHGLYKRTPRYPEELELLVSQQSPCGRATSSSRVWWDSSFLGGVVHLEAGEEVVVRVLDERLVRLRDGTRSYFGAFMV
Put plainly: cell-based or functional assay.

Experiment [9] deals with T1, human LIGHT (TNFSF14), full length, …. Put plainly: soluble LIGHT 74-240 KD over membrane LIGHT KD.
For experiment [10] the target is unchanged. Kind of experiment: membrane LIGHT on cells, as for Table 9.
Experiment [11] deals with T2, recombinant human soluble LIGHT, amino …. Put plainly: SPR (BIAcore), as for Table 9. Here is the method: Real-time binding interactions between captured antibody (chimeric anti-membrane LIGHT monoclonal antibody) captured on a biosensor matrix via goat anti-human Fe IgG and recombinant soluble LIGHT were measured by surface plasmon resonance (SPR) using the BIAcore system (GE Healthcare) according to manufacturer's instructions and standard procedures. Briefly, soluble LIGHT was diluted in HBS running buffer (GE Healthcare) and aliquots were injected through the immobilized protein matrices at a flow rate of […]. BIAevaluation software was used to calculate association rate (ka), dissociation rate (kd) and affinity (KD).
The specificity of further anti-membrane LIGHT mAbs to soluble LIGHT was determined by using the same BIAcore analysis discussed above which was used to generate the data in Table 9. In brief, mAbs 3B04, 3D12, 3A07, 3C10 and 2B11 were compared to various prior art antibodies, (F19 and F23 IgG4 mAbs from EP2292663 and 1C02, 13H04 and 31A10 mAbs from WO2015/107331).
(In SPR one partner is held on a chip, and binding of the other changes the refractive index at the surface.)

For experiment [12], the target named is T1, human LIGHT (TNFSF14), full length, …. Put plainly: flow cytometry, mAb binding to EL4 cells stably expressing human LIGHT [lower panel].

For orientation: IC50 means the concentration at which inhibition is half-maximal. High values mean weaker potency in that assay, low ones greater potency in that assay. Broadly, the EC50 is the concentration at which the effect is half-maximal. Higher therefore signals weaker potency. The term Kd denotes the constant that tells how readily two partners part at equilibrium. In general, EC50 (read off the curve) refers to the concentration that produces a half-maximal response.

membrane LIGHT without residues 81-84 (EL4-NC-LIGHT cells), sequence (O43557 other isoform, or with tags, fused parts or gaps): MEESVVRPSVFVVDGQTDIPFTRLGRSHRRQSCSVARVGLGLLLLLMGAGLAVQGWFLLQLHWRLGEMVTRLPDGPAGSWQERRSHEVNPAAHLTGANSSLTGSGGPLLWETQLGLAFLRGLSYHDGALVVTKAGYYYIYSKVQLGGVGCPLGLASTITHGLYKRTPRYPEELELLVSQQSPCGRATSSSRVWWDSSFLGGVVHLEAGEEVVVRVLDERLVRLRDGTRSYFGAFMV

B1: 3E09 (antibody, V domains shown)
VH: EVQLVESGGGLVKPGGSLKLSCEASGFTFSDYYMYWVRQTPEKRLEWVAAIGDGGIYTYYADTVKGRFTISRDNAKNILYLQMSSLKSNDTAMYYCARGTGDGFAYWGQGTLVTVS
VL: DIVLTQSPASLAVSLGQRATISCRASESVDSYGNSFMHWYQQKPGQPPKLLIYLASNLESGVPARFSGSGSRTDFTLTIDPVEADDAATYYCQQNNEDPYTFGGGTKLEIK
notes: chimeric human IgG4 (S-to-P, L-to-E at 248), human CL; also called Parental 3E09
Take B1: the “binding ratio, mAb per LIGHT trimer” value in [1] stood at 1 mAb per LIGHT trimer. In experiment [2], the IC50 was found to be 36.6 nM. Moreover, the “DcR3-His binding, % of irrelevant mAb” value in experiment [3] is 80.4%; in experiment [4], 66.9%; in experiment [5], 70.5%. The molecule further yielded an EC50 in experiment [6] of 8.1 nM.

B2: 2E08 (antibody, human IgG4, V domains shown)
VH: QVQMKESGAELVRPGVSVKISCKGSGYTFTDYAIHWVKQSHAKTLEWIGVISTYYGDASYNQKFKGKATMTVDKSSSTAYMELARLTSDDSAIYYCARSRGEYGNYDAMDYWGQGTSVTVSS
VL: DIVLTQSPASLAVSLGQRATISCKASQSVDYDGDSYMNWYQQKPGQPPKLLIYAASNLESGIPARFSGSGSGTDFTLNIHPVEEEDAATYYCQQSNEDPLTFGAGTKLELK
notes: chimeric human IgG4 (S-to-P, L-to-E at 248), human CL; also called Parental 2E08
Regarding B2, the “binding ratio, mAb per LIGHT trimer” value in [1] was 1 mAb per LIGHT trimer. Besides, the IC50 in [2] amounted to 23.8 nM. Also, the “DcR3-His binding, % of irrelevant mAb” value in experiment [3] is 66.1%; in experiment [4] it was 118%; in [5], 78.4%. In addition, the response in experiment [6] was half-maximal at 1.8 nM (EC50). Further, the “IC50, nM membrane LIGHT (IL-8 release from HT-29 cells)” value (from here on “IC50, nM membrane LIGHT”) in [7] worked out at 1.8 nM. In experiment [8], the “IC50, nM soluble LIGHT (5 ng/ml; IL-8 release from HT-29 cells)” value (from here on “IC50, nM soluble LIGHT”) was > 100 nM.

B3: 2B11 (antibody, human IgG4, V domains shown)
VH: EVQLVESGAELVRPGVSVKISCKGSGYTFTDYAIHWVKQSHAKSLEWIGVISTYYGDASYNQKFKGKATMTVDKSSSTAYMELARLTSEDSAIYYCARSRGEYGNYDAMDYWGQGTSVTVSS
VL: DIVLTQSPASLAVSLGQRATISCRASESVDSYGNSFMHWYQQKPGQPPKLLIYRASNLESGIPARFSGSGSRTDFTLTINPVEADDVATYYCQQSNEDPYTFGGGTKLEIK
notes: chimeric human IgG4 (S-to-P, L-to-E at 248), human CL; also called Parental 2B11
As to B3, the “binding ratio, mAb per LIGHT trimer” value in experiment [1] is 1 mAb per LIGHT trimer. In addition, the IC50 in [2] worked out at 2.9 nM. Also, the results for the “DcR3-His binding, % of irrelevant mAb” value in [3], in [4] and in experiment [5] were 78.6%, 115% and 79.8%, respectively. Also, the “Membrane:soluble LIGHT affinity ratio” value in experiment [9] stood at 47.1. Further, the Kd in experiment [10] was determined as 0.34 nM; in experiment [11] it was 16 nM. In experiment [6], a half-maximal response (EC50) required 0.3 nM. In addition, the “IC50, nM membrane LIGHT” value in [7] stood at 0.55 nM. In experiment [8], the “IC50, nM soluble LIGHT” value amounted to 47 nM.

B4: 3A07 (antibody, human IgG4, V domains shown)
VH: QVQLQQSGAELVRPGAPVTLSCKASDYTFTDSEIHWVKQTPVHGLEWIGEIDPETGGTAYNQKFKGKATLTADKSSSTAYMELRSLTSEDSAVYYCSRETDYFFDYWGQGTTLTVSS
VL: ENVLTQSPAIMSASPGEKVTMTCSASSSVSYMYWYQQRPGSSPRLLIYDTSNLASGVPVRFSGSGSGTSYSLTISRMEAEDAATYYCQQWSSYPLTFGSGTKLEIK
notes: chimeric human IgG4 (S-to-P, L-to-E at 248), human CL; also called Parental 3A07
On to B4, for which the “binding ratio, mAb per LIGHT trimer” value in experiment [1] worked out at 1 mAb per LIGHT trimer. In [2], this molecule registered an IC50 of 2.5 nM. Also, the “DcR3-His binding, % of irrelevant mAb” value worked out at 89.6% in [3], 90.6% in [4] and 67.5% in experiment [5]. Moreover, the “Membrane:soluble LIGHT affinity ratio” value in [9] is 105. For the same molecule, the Kd in experiment [10] came out at 0.15 nM; in experiment [11], 15.8 nM. This molecule showed an EC50 in [6] of 0.14 nM. In addition, in [7], the “IC50, nM membrane LIGHT” value worked out at 2 nM. The “IC50, nM soluble LIGHT” value in experiment [8] is > 100 nM.

B5: 3B04 (antibody, human IgG4, V domains shown)
VH: QVQLQQPGAELVRPGASVTLSCKASGYTFTDYEMHWVKQTPVHGLEWIGEIDPETGDTAYSQKFKGKATLTADKSSSTAYMEFRSLTSEDSAVYYCSRETDYFFDYWGQGTTLTVSS
VL: DIQMTQTPASLSASVGETVTITCGASENIYGALNWYQRKQGKSPQLLIYGATNLADGMSSRFSGSGSGRQYSLKISSLHPDDFATYYCQNVLTTPWTFGGGTKLEIKR
notes: chimeric: mouse variable domains on human IgG4 HC (S-to-P and L-to-E at 248) and human CL; also called Parental 3B04; 3B04 chimeric
With B5, the IC50 in experiment [2] stood at 1.2 nM. Further, the “DcR3-His binding, % of irrelevant mAb” value is 78.5% in experiment [3], 75.1% in experiment [4] and 85.1% in experiment [5]. The “Membrane:soluble LIGHT affinity ratio” value in experiment [9] was 52.9. Further, the figures for the Kd in experiment [10] and in experiment [11] were 0.21 nM and 11.1 nM, respectively. In addition, in [6], the response was half-maximal at 0.15 nM (EC50). Also, the “EC50 (read off the curve)” value in [12] was ~0.2 nM. Further, the “IC50, nM membrane LIGHT” value in experiment [7] was determined as 0.15 nM. The “IC50, nM soluble LIGHT” value in [8] came to 6.5 nM.

B6: 3C10 (antibody, human IgG4, V domains shown)
VH: EVQLQQSGAELVRPGASVTLSCKASDYTFTDSEIHWVKQTPVHGLEWIGEIDPETGGTAYNQKFKGKATLTADKSSSTAYMELRSLTSEDSAVYYCSRETDYFFDYWGQGTTLTVSS
VL: DVVMTQTPAIMSASPGEKVTMTCSASSSVSYMYWYQQKPGSSPRLLIYDTSNLASGVPVRFSGSGSGTSYSLTISRMEAEDAATYYCQQWSSYPLTFGAGTKLELK
notes: chimeric human IgG4 (S-to-P, L-to-E at 248), human CL; also called Parental 3C10
As for B6, the “binding ratio, mAb per LIGHT trimer” value in experiment [1] turned out to be 1 mAb per LIGHT trimer. Further, in [2], the IC50 was 2.1 nM. The results for the “DcR3-His binding, % of irrelevant mAb” value in experiment [3], in experiment [4] and in experiment [5] were 86.9%, 95.5% and 81.9%, respectively. Besides, the “Membrane:soluble LIGHT affinity ratio” value in experiment [9] worked out at 61.1. Also, the Kd in [10] was found to be 0.18 nM; in [11], 11 nM. The molecule further gave an EC50 in [6] of 0.16 nM. Besides, the “IC50, nM membrane LIGHT” value in experiment [7] turned out to be 1.9 nM. Moreover, in experiment [8], the “IC50, nM soluble LIGHT” value is > 100 nM.
